Data as given in patent US20180118786A1 (published 2018).
Starred links: 1 amine or outer side, 2 acyl side, 3 side chain; linkers in the order of their positions; H or OH if unused. Positions of bridges follow the written chain, without caps; N, C: chain ends. TATA = O=C(CC[*:1])N1CN(C(=O)CC[*:2])CN(C(=O)CC[*:3])C1

What was measured:
Assay in all cases: enzyme inhibition
[1] = molecular target: plasma kallikrein (human, UniProt P03952 20-638)
[2] = molecular target: uPA (human, UniProt P00749 21-431)
[3] = molecular target: factor XIa (human, UniProt P03951 19-625)
[4] = molecular target: T1, factor VIIa (human, UniProt P08709 61-466)
T1 chain: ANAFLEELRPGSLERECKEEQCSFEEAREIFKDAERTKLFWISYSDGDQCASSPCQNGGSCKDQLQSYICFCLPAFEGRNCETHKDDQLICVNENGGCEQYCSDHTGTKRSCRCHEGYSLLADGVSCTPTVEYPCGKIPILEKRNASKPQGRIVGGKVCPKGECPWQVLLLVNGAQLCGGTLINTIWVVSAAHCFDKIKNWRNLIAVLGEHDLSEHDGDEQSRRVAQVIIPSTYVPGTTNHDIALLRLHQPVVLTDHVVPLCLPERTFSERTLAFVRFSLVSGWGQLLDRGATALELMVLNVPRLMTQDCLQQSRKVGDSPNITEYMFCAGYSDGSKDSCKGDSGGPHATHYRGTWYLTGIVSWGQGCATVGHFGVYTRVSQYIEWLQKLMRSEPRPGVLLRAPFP

[5] = molecular target: thrombin (human, UniProt P00734 328-622)
[6] = molecular target: human tissue-plasminogen activator (human, UniProt P00750 36-562)
Chain of human tissue-plasminogen activator (P00750 36-562): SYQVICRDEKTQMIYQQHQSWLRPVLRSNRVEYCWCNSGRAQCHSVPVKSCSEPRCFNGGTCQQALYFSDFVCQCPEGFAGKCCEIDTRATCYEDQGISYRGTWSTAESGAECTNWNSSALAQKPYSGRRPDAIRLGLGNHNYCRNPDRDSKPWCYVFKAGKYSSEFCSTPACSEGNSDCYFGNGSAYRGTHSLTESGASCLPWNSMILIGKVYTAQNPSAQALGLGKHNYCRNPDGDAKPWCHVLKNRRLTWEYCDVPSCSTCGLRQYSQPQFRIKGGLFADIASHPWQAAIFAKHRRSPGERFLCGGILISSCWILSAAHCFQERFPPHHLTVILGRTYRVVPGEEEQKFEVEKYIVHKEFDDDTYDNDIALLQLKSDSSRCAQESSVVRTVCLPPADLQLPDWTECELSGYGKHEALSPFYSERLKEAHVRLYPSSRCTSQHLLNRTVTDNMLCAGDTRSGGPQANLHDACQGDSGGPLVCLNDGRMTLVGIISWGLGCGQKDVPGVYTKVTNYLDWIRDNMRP

[7] = molecular target: T2, plasmin (human, UniProt P00747 97-810)
T2 chain: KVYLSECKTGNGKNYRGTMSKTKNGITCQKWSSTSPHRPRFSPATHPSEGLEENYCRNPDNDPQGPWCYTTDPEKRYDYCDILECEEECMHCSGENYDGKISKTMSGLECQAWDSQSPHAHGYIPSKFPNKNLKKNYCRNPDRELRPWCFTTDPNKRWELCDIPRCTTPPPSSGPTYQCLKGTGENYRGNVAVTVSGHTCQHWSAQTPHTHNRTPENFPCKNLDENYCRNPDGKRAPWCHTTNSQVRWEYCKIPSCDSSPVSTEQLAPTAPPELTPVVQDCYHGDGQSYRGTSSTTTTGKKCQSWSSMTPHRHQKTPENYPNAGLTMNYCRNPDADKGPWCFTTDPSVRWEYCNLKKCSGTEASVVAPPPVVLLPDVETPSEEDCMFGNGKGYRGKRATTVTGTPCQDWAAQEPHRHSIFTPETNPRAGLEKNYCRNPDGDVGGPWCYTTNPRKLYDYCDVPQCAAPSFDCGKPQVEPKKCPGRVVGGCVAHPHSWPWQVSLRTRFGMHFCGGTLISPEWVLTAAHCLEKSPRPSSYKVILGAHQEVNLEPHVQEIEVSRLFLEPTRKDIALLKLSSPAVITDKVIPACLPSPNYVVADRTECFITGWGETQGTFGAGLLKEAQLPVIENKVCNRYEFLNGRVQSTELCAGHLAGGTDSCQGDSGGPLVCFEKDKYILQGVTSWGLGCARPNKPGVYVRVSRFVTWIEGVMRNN

[8] = molecular target: T3, factor Xa (human, UniProt P00742 41-179; P00742 235-488)
T3 chain 1: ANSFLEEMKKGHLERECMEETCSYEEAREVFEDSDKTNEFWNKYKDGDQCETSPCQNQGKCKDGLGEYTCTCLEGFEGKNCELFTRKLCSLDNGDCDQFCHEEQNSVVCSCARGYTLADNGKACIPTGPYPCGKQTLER
T3 chain 2: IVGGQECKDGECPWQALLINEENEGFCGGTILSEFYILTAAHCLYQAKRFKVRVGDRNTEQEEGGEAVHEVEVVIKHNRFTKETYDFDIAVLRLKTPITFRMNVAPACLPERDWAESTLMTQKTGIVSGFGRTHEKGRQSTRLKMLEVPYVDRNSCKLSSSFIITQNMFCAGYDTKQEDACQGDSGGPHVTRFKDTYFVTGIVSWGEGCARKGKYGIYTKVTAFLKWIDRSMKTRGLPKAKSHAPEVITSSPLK

Measured: Ki

Chain of plasma kallikrein (P03952 20-638): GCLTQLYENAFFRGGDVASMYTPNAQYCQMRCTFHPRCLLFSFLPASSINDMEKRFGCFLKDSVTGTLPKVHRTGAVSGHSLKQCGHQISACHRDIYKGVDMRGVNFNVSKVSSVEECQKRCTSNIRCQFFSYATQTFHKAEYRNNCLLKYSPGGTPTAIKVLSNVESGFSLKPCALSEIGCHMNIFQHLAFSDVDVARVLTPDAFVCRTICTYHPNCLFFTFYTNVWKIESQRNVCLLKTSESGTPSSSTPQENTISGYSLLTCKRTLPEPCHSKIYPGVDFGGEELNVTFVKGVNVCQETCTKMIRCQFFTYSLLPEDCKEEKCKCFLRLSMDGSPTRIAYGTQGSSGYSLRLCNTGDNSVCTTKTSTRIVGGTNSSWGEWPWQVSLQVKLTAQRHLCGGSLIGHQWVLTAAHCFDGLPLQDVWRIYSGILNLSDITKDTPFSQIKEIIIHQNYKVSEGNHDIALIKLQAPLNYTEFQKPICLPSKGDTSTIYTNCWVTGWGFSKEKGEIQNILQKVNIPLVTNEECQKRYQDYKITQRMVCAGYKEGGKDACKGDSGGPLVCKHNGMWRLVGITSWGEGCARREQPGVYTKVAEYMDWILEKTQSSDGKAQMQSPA

H-RCFRLPCRQLRCR-NH2 (linker 2-7-12 via TATA) [FXII618]
> 50 µM: all assays above
